The target in the data set is APOBEC3B (A3B) WT (human, UniProt Q9UH17 1-382). Briefly: EMSA with unlabeled self-competitor; binds ssDNA and ssRNA equally strongly; Competition EMSA: 25 mM HEPES pH 7.4, 50 mM NaCl, 0.4 U/ul RNase inhibitor, room temperature, 5 min binding plus 10 min with competitor; R-loop substrate EMSA:
As to conditions: protein: recombinant; tags: C-terminal mycHis; label: 5' IRDye800CW.

APOBEC3B (A3B) WT, sequence (Q9UH17 whole entry): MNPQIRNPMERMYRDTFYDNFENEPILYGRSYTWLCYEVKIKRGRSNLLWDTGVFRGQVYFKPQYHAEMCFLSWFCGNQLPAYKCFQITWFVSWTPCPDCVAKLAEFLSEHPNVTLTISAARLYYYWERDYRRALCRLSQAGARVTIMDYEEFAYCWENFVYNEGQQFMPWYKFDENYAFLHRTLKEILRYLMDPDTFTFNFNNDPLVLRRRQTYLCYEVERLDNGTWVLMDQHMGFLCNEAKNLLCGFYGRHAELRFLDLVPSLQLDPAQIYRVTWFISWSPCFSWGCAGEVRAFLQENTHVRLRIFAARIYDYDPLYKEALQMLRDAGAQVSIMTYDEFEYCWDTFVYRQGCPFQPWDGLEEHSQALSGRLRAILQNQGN

B1: short 15-mer ssRNA (A3B RNA EMSA) (ssRNA)
RNA: AUUAGUCAUAUGGAU
For the molecule B1, the binding result is on record as “binds”.

B2: short 15-mer ssDNA (A3B DNA EMSA) (ssDNA)
DNA: ATTAGTCATATGGAT
Take B2: the binding result is listed as “binds”.

For the origin of these results see paper PMC10562255, “APOBEC3B regulates R-loops and promotes transcription-associated mutagenesis in cancer”.
